Results: article PMC9822811

Target: recombinant SARS-CoV-2 RBD of original WT strain (SARS-CoV-2) (UniProt P0DTC2)
Test: SPR

REGN-10933 showed a Kd of 0.576 nM.
